This data set deals with T1, peptide TRPM7p (Ac-RKKYRIVWKSIFRRFL).
T1 sequence: RKKYRIVWKSIFRRFL

For the substance TRPM7 kinase, the “fold increase in activity as compared to peptide MH-U” value was in the range of 30 to 35 fold increase in activity and the “phosphorylation at a single substrate concentration (100 µM)” value is “both peptides are efficiently phosphorylated by their respective kinases”.

These data come from patent US20110020842.
